Test results published in paper PMC4741643.

Molecular target: suppressor of MEK null (sMEK1), full-length human, pGilda fusion (human) (UniProt Q6IN85)
Assay: two-hybrid; EGY48 yeast cells; pGilda-sMEK1 as bait, pJG4-5 fusions as prey; growth on medium lacking leucine, blue colonies on X-gal plates with 2% galactose, β-galactosidase activity with ONPG

Chain of UniProt Q6IN85 (Q6IN85 whole entry, the tested form may be a part): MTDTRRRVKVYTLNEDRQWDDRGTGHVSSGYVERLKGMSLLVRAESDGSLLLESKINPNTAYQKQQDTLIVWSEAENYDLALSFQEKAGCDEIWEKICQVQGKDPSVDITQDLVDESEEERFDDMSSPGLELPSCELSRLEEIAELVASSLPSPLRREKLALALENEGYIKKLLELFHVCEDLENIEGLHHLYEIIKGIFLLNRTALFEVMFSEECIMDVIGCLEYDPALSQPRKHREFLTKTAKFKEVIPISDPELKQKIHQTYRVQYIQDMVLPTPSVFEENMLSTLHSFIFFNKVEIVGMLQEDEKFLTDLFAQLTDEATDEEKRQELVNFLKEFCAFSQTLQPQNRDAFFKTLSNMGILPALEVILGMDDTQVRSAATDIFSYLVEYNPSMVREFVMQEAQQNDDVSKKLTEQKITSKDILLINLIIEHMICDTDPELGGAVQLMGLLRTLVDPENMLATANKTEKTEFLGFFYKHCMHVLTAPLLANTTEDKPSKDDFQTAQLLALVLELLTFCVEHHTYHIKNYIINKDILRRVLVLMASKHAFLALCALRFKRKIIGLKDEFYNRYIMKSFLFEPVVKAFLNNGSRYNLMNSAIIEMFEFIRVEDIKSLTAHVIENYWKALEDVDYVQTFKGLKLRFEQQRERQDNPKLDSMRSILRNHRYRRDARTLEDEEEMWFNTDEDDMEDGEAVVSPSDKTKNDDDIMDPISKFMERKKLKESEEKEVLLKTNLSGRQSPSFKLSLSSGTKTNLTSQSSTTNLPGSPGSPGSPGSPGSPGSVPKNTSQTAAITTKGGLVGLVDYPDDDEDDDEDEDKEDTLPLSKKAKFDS

β-galactosidase activity: 92.3 unit
Substance: vascular endothelial growth factor receptor 2 (VEGFR-2), full-length human, yeast two-hybrid construct (from UniProt P35968 1-1356)
